{"source": "paper PMC5777261", "about": "(The Journal of Biological Chemistry, 2017)", "binders": {"B1": {"name": "CXCL11 (unlabeled recombinant chemokine) (ligand, human, UniProt O14625 22-94, looked up)", "chain": "FPMFKRGRCLCIGPGVKAVKVADIEKASIMYPSNNCDKIEVIITLKENKGQRCLNPKSKQARLIIKKVERKNF", "notes": "chemokine CXCL11 (I-TAC); called human CXCL11 in the text on scavenging by MEFs; also called I-TAC; unlabeled CXCL11; source: recombinant; gift from Amanda Nevins and Brian Volkman or from PeproTech Inc"}}, "assay_in_all_cases": "radioligand binding; HEK293 cells expressing ACKR3-YFP or mutants, pretreated 5 min at 37 °C with 100 μM phenylarsine oxide; 50 pM 125I-CXCL12 tracer in 50 mM HEPES pH 7.4, 5 mM MgCl2, 1 mM CaCl2, 0.2% BSA, with or without unlabeled CXCL12 or CXCL11, 30 min at 37 °C; bound label counted in a γ counter; IC50 taken as proxy for ligand affinity", "details_in_all_cases": "one partner purified", "key": {"[1]": {"molecular_target": "T1, ACKR3-YFP (wildtype ACKR3 fused C-terminally to YFP) (UniProt P25106 1-362)", "T1 construct": "atypical chemokine receptor 3 (ACKR3, also known as CXCR7); also called CXCR7; receptor-YFP fusion; source: HEK293, transiently transfected (polyethyleneimine), on or in cells; not shown: YFP, C-terminal, kept"}, "ACKR3 D90N-YFP": {"molecular_target": "T2, ACKR3 D90N-YFP (UniProt P25106 1-362, D90N)", "T2 construct": "ACKR3 (CXCR7) with D90N (Ballesteros-Weinstein 2.50), made by PCR in ACKR3-YFP; also called D90^2.50N; source: HEK293, transiently transfected (polyethyleneimine), on or in cells; not shown: YFP, C-terminal, kept", "T2 sequence (P25106 whole entry D90N)": "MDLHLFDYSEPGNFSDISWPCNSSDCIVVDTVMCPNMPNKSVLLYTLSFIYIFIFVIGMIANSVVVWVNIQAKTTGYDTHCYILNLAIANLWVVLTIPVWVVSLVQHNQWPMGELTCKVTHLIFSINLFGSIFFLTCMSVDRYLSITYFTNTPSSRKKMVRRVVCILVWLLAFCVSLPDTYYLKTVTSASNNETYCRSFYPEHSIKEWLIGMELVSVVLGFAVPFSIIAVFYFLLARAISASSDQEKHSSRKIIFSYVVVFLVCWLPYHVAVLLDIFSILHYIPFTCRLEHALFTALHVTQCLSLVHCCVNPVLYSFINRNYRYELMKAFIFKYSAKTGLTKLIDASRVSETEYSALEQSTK"}, "ACKR3 N127D-YFP": {"molecular_target": "T3, ACKR3 N127D-YFP (UniProt P25106 1-362, N127D)", "T3 construct": "ACKR3 (CXCR7) with N127D (Ballesteros-Weinstein 3.35), made by PCR in ACKR3-YFP; also called N127^3.35D; source: HEK293, transiently transfected (polyethyleneimine), on or in cells; not shown: YFP, C-terminal, kept", "T3 sequence (P25106 whole entry N127D)": "as the sequence (P25106 whole entry D90N) above, with N90D, N127D counted along it"}, "ACKR3 N127K-YFP": {"molecular_target": "T4, ACKR3 N127K-YFP (UniProt P25106 1-362, N127K)", "T4 construct": "ACKR3 (CXCR7) with N127K (Ballesteros-Weinstein 3.35), made by PCR in ACKR3-YFP; also called N127^3.35K; source: HEK293, transiently transfected (polyethyleneimine), on or in cells; not shown: YFP, C-terminal, kept", "T4 sequence (P25106 whole entry N127K)": "as the sequence (P25106 whole entry D90N) above, with N90D, N127K counted along it"}, "ACKR3 N127S-YFP": {"molecular_target": "T5, ACKR3 N127S-YFP (UniProt P25106 1-362, N127S)", "T5 construct": "ACKR3 (CXCR7) with N127S (Ballesteros-Weinstein 3.35), made by PCR in ACKR3-YFP; also called N127^3.35S; source: HEK293, transiently transfected (polyethyleneimine), on or in cells; not shown: YFP, C-terminal, kept", "T5 sequence (P25106 whole entry N127S)": "as the sequence (P25106 whole entry D90N) above, with N90D, N127S counted along it"}, "ACKR3 D141N-YFP": {"molecular_target": "T6, ACKR3 D141N-YFP (UniProt P25106 1-362, D141N)", "T6 construct": "ACKR3 (CXCR7) with D141N (Ballesteros-Weinstein 3.49), made by PCR in ACKR3-YFP; also called D141^3.49N; source: HEK293, transiently transfected (polyethyleneimine), on or in cells; not shown: YFP, C-terminal, kept", "T6 sequence (P25106 whole entry D141N)": "as the sequence (P25106 whole entry D90N) above, with N90D, D141N counted along it"}, "ACKR3 R142A-YFP": {"molecular_target": "T7, ACKR3 R142A-YFP (UniProt P25106 1-362, R142A)", "T7 construct": "ACKR3 (CXCR7) with R142A (Ballesteros-Weinstein 3.50), made by PCR in ACKR3-YFP; also called R142^3.50A; ACKR3 R142^3.50A; source: HEK293, transiently transfected (polyethyleneimine), on or in cells; not shown: YFP, C-terminal, kept", "T7 sequence (P25106 whole entry R142A)": "as the sequence (P25106 whole entry D90N) above, with N90D, R142A counted along it"}, "ACKR3 Y143A-YFP": {"molecular_target": "T8, ACKR3 Y143A-YFP (UniProt P25106 1-362, Y143A)", "T8 construct": "ACKR3 (CXCR7) with Y143A (Ballesteros-Weinstein 3.51), made by PCR in ACKR3-YFP; also called Y143^3.51A; source: HEK293, transiently transfected (polyethyleneimine), on or in cells; not shown: YFP, C-terminal, kept", "T8 sequence (P25106 whole entry Y143A)": "as the sequence (P25106 whole entry D90N) above, with N90D, Y143A counted along it"}, "ACKR3 Y315A-YFP": {"molecular_target": "T9, ACKR3 Y315A-YFP (UniProt P25106 1-362, Y315A)", "T9 construct": "ACKR3 (CXCR7) with Y315A (Ballesteros-Weinstein 7.53), made by PCR in ACKR3-YFP; also called Y315^7.53A; source: HEK293, transiently transfected (polyethyleneimine), on or in cells; not shown: YFP, C-terminal, kept", "T9 sequence (P25106 whole entry Y315A)": "as the sequence (P25106 whole entry D90N) above, with N90D, Y315A counted along it"}}, "data": [{"binder": "B1", "values": [{"measurement": "IC50", "setting": "[1]", "value": 39.1, "unit": "nM"}, {"measurement": "Log IC50", "setting": "[1]", "value": -7.4}, {"measurement": "IC50", "setting": "ACKR3 D90N-YFP", "value": 35.9, "unit": "nM"}, {"measurement": "Log IC50", "setting": "ACKR3 D90N-YFP", "value": -7.5}, {"measurement": "IC50", "setting": "ACKR3 N127D-YFP", "value": 6.6, "unit": "nM"}, {"measurement": "Log IC50", "setting": "ACKR3 N127D-YFP", "value": -8}, {"measurement": "IC50", "setting": "ACKR3 N127K-YFP", "value": 11, "unit": "nM"}, {"measurement": "Log IC50", "setting": "ACKR3 N127K-YFP", "value": -7.9}, {"measurement": "IC50", "setting": "ACKR3 N127S-YFP", "value": 3.7, "unit": "nM"}, {"measurement": "Log IC50", "setting": "ACKR3 N127S-YFP", "value": -8.5}, {"measurement": "IC50", "setting": "ACKR3 D141N-YFP", "value": 4.8, "unit": "nM"}, {"measurement": "Log IC50", "setting": "ACKR3 D141N-YFP", "value": -8.3}, {"measurement": "IC50", "setting": "ACKR3 R142A-YFP", "value": 44.8, "unit": "nM"}, {"measurement": "Log IC50", "setting": "ACKR3 R142A-YFP", "value": -7.4}, {"measurement": "IC50", "setting": "ACKR3 Y143A-YFP", "value": 15.4, "unit": "nM"}, {"measurement": "Log IC50", "setting": "ACKR3 Y143A-YFP", "value": -7.8}, {"measurement": "IC50", "setting": "ACKR3 Y315A-YFP", "value": 19.1, "unit": "nM"}, {"measurement": "Log IC50", "setting": "ACKR3 Y315A-YFP", "value": -7.7}]}]}
